Results from US20250136682A1 (ACADEMIA SINICA, published 2025).

T1: mouse Siglec-3 expressed in HEK-293T cells (mouse, UniProt Q63994 17-403)
T1 construct: whole, on cells
T1 sequence (looked up): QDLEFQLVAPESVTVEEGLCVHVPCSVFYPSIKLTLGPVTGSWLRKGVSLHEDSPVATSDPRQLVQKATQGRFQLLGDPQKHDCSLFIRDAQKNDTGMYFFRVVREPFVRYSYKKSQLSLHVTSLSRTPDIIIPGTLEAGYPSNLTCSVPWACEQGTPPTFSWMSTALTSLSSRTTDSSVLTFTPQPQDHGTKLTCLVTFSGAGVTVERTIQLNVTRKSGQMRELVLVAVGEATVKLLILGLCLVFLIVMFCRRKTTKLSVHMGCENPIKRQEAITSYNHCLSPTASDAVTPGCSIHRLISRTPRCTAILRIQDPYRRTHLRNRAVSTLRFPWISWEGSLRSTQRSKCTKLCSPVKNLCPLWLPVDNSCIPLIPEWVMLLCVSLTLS


How the values were obtained:
[1] = target: T2, human Siglec-3 (CD33) on cells (human, UniProt P20138 18-364); experiment: flow cytometry, APC-conjugated antibody titrated on human monocytes (endogenous Siglec-3)
T2 construct: whole, on cells; also called human endogenous or exogenous Siglec-3
Protocol: (§1) For establishment of titration curves, human monocytes and moDCs (3×10⁴) were incubated with the indicated concentrations of the APC-conjugated anti-Siglec-3 antibodies 4H3-3A, 10C8, as well as hIgG1 control, and analyzed by a flow cytometry instrument (FACSVerse; BD Biosciences). Mean fluorescence intensity (MFI) was analyzed by a software FlowJo (TreeStar, Inc.).

[2] = target: T2, human Siglec-3 (CD33) on cells; experiment: flow cytometry, APC-conjugated antibody titrated on human monocyte-derived dendritic cells (endogenous Siglec-3)
Protocol: as §1

[3] = target: T3, human CD33.Fc (recombinant extracellular domain of human Siglec-3 fused with Fc portion of hIgG1) (human, UniProt P20138 18-259); experiment: SPR (BIAcore 2000), human CD33.Fc immobilized on CM5 chip
T3 construct: extracellular domain; also called Siglec-3.Fc; not shown: Fc portion of human IgG1
Protocol: Human IgG1 was first mobilized on channel one of a CM5 chip as the blank to determine the bulk effect of injection itself, whereas human CD33.Fc were immobilized on channel two for analysis of its kinetic interaction with wild various clones of anti-CD33 mAbs, respectively. The interaction between […] and anti-CD33 mAbs was determined by surface plasmon resonance using a Biacore instrument (BIAcore 2000).

[4] = target: T1, mouse Siglec-3 expressed in HEK-293T …; experiment: flow cytometry, antibody titrated on HEK-293T cells expressing exogenous mouse Siglec-3
[5] = target: T2, human Siglec-3 (CD33) on cells; experiment: flow cytometry on moDCs (data not shown)

T3 sequence (P20138 18-259): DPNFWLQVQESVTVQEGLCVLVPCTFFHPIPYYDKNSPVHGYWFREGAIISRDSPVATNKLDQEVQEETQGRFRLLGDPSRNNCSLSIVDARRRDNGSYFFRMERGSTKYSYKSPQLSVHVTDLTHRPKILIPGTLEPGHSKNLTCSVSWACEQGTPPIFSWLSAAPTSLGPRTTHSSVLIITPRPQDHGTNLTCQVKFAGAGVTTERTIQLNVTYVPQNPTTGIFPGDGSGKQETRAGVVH
T2 sequence (P20138 18-364): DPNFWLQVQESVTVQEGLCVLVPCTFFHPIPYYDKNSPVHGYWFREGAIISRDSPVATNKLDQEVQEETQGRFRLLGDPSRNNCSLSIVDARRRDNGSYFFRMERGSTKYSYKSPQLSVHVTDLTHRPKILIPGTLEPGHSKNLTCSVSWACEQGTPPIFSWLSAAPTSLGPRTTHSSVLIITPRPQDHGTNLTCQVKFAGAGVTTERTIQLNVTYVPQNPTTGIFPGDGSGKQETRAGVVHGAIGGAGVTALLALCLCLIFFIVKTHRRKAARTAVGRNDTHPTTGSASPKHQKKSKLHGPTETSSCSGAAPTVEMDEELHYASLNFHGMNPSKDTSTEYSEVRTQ

Row | Binder | binding result [5] | further results
1 | 1H3-3A (antibody, human IgG1, kappa) light chain: DGTDIQMTQSPSSLSASVGDRVTITCRASQDVYGYVAWYQQKPGKAPKLLISYTPGLYSGVPSRFSGSGSGTDFTLTISSLQPEDFATYYCQQYYDFPITFGQGTKVEIKRTVAAPSVFIFPPSDEQLKSGTASVVCLLNNFYPREAKVQWKVDNALQSGNSQESVTEQDSKDSTYSLSSTLTLSKADYEKHKVYACEVTHQGLSSPVTKSFNRGEC heavy chain: not shown |  | EC50 (read off the curve) [1]: ~100 nM; EC50 (read off the curve) [2]: ~30 nM
2 | anti-Siglec-3 antibody 4H3-3A (scFv clone H3-3A reformatted into hIgG4) (antibody, Human IgG4 format) heavy: not shown light: DGTDIQMTQSPSSLSASVGDRVTITCRASQDVYGYVAWYQQKPGKAPKLLISYTPGLYSGVPSRFSGSGSGTDFTLTISSLQPEDFATYYCQQYYDFPITFGQGTKVEIKRTVAAPSVFIFPPSDEQLKSGTASVVCLLNNFYPREAKVQWKVDNALQSGNSQESVTEQDSKDSTYSLSSTLTLSKADYEKHKVYACEVTHQGLSSPVTKSFNRGEC |  | Kd [3]: 8.88 nM; koff [3]: 0.0373 s⁻¹; kon [3]: 4.21e+06 M⁻¹ s⁻¹; binding result [4]: no binding
3 | anti-Siglec-3 antibody 10C8 (antibody, V domains shown) VH: EVQLVESGGGLVQPGGSLRLSCAASGFTINNGWIHWVRQAPGKGLEWVAGIGPYGGSTFYADSVKGRFTISADTSKNTAYLQMNSLRAEDTAVYYCSRFIGSYSHMDYWGQGTLVTVSS VL: DIQMTQSPSSLSASVGDRVTITCRASQDVYYYVAWYQQKPGKAPKLLISSAGGLYSGVPSRFSGSGSGTDFTLTISSLQPEDFATYYCQQYFNFPLTFGQGTKVEIKR |  | EC50 (read off the curve) [1]: ~200 nM
4 | anti-Siglec-3 antibody S3H1-85 reformatted into human IgG1 or IgG4 (antibody, V domains shown, also called 1S3H1-85; 4S3H1-85) VH: VQLVESGGGLVQPGGSLRLSCAASGFTIGSGWIHWVRQAPGKGLEWVAGIGPYGGYTYYADSVKGRFTISADTSKNTAYLQMNSLRAEDTAVYYCARFNDHWDLWMDYWGQGTLVTVSS VL: DIQMTQSPSSLSASVGDRVTITCRASQDVYGYVAWYQQKPGKAPKLLISYTPGLYSGVPSRFSGSGSGTDFTLTISSLQPEDFATYYCQQYYDFPITFGQGTKVEIKR | binds | 
5 | anti-Siglec-3 antibody S3H2-12 reformatted into human IgG1 or IgG4 (antibody, V domains shown, also called 1S3H2-12; 4S3H2-12) VH: VQLVESGGGLVQPGGSLRLSCAASGFTIDDGFIHWVRQAPGKGLEWVATISPNTGHTNYADSVKGRFTISADTSKNTAYLQMNSLRAEDTAVYYCARFNDHWDLWMDYWGQGTLVTVSS VL: DIQMTQSPSSLSASVGDRVTITCRASQDVYGYVAWYQQKPGKAPKLLISYTPGLYSGVPSRFSGSGSGTDFTLTISSLQPEDFATYYCQQYYDFPITFGQGTKVEIKR | binds | 
6 | anti-Siglec-3 antibody S3H1-76 reformatted into human IgG1 or IgG4 (antibody, V domains shown, also called 1S3H1-76; 4S3H1-76) VH: VQLVESGGGLVQPGGSLRLSCAASGFTISSSYIHWVRQAPGKGLEWVAGIGPYGGYTYYADSVKGRFTISADTSKNTAYLQMNSLRAEDTAVYYCARFNDHWDLWMDYWGQGTLVTVSS VL: DIQMTQSPSSLSASVGDRVTITCRASQDVYGYVAWYQQKPGKAPKLLISYTPGLYSGVPSRFSGSGSGTDFTLTISSLQPEDFATYYCQQYYDFPITFGQGTKVEIKR | binds | 
7 | anti-Siglec-3 antibody H3-8F reformatted into human IgG1 or IgG4 (antibody, V domains shown, also called 1H3-8F; 4H3-8F) VH: VQLVESGGGLVQPGGSLRLSCAASGFTIDDGFIHWVRQAPGKGLEWVAGIGPYGGYTYYADSVKGRFTISADTSKNTAYLQMNSLRAEDTAVYYCARFRDTQSQTMDYWGQGTLVTVSS VL: DIQMTQSPSSLSASVGDRVTITCRASQDVYGYVAWYQQKPGKAPKLLISYTPGLYSGVPSRFSGSGSGTDFTLTISSLQPEDFATYYCQQYYDFPITFGQGTKVEIKR | binds | 
8 | anti-Siglec-3 antibody H3-10E reformatted into human IgG1 or IgG4 (antibody, V domains shown, also called 1H3-10E; 4H3-10E) VH: VQLVESGGGLVQPGGSLRLSCAASGFTIDDGFIHWVRQAPGKGLEWVAGIGPYGGYTYYADSVKGRFTISADTSKNTAYLQMNSLRAEDTAVYYCARFQNSPTKTMDYWGQGTLVTVSS VL: DIQMTQSPSSLSASVGDRVTITCRASQDVYGYVAWYQQKPGKAPKLLISYTPGLYSGVPSRFSGSGSGTDFTLTISSLQPEDFATYYCQQYYDFPITFGQGTKVEIKR | binds | 
9 | anti-Siglec-3 antibody S3PL3-46 reformatted into human IgG1 or IgG4 (antibody, V domains shown, also called 1S3PL3-46; 4S3PL3-46) VH: VQLVESGGGLVQPGGSLRLSCAASGFTIDDGFIHWVRQAPGKGLEWVAGIGPYGGYTYYADSVKGRFTISADTSKNTAYLQMNSLRAEDTAVYYCARFNDHWDLWMDYWGQGTLVTVSS VL: DIQMTQSPSSLSASVGDRVTITCRASQDVYGYVAWYQQKPGKAPKLLISYTPGLYSGVPSRFSGSGSGTDFTLTISSLQPEDFATYYCQQYSRMPITFGQGTKVEIKR | binds | 
10 | anti-Siglec-3 antibody S3H1-29 reformatted into human IgG1 or IgG4 (antibody, V domains shown, also called 1S3H1-29; 4S3H1-29) VH: VQLVESGGGLVQPGGSLRLSCAASGFTIHGSWIHWVRQAPGKGLEWVAGIGPYGGYTYYADSVKGRFTISADTSKNTAYLQMNSLRAEDTAVYYCARFNDHQDLWMDYWGQGTLVTVSS VL: DIQMTQSPSSLSASVGDRVTITCRASQDVYGYVAWYQQKPGKAPKLLISYTPGLYSGVPSRFSGSGSGTDFTLTISSLQPEDFATYYCQQYYDFPITFGQGTKVEIKR | binds | 
11 | anti-Siglec-3 antibody S3H2-8 reformatted into human IgG1 or IgG4 (antibody, V domains shown, also called 1S3H2-8; 4S3H2-8) VH: VQLVESGGGLVQPGGSLRLSCAASGFTIDDGFIHWVRQAPGKGLEWVAAIKPRQGDTSYADSVKGRFTISADTSKNTAYLQMNSLRAEDTAVYYCARFNDHWDLWMDYWGQGTLVTVSS VL: DIQMTQSPSSLSASVGDRVTITCRASQDVYGYVAWYQQKPGKAPKLLISYTPGLYSGVPSRFSGSGSGTDFTLTISSLQPEDFATYYCQQYYDFPITFGQGTKVEIKR | binds | 

Further lines, with some results ahead:

Row | binding result [5] | Binder | further results
12 | binds | anti-Siglec-3 antibody H3-10F reformatted into human IgG1 or IgG4 (antibody, V domains shown, also called 1H3-10F; 4H3-10F) VH: VQLVESGGGLVQPGGSLRLSCAASGFTIDDGFIHWVRQAPGKGLEWVAGIGPYGGYTYYADSVKGRFTISADTSKNTAYLQMNSLRAEDTAVYYCARFATHDQPLMDYWGQGTLVTVSS VL: DIQMTQSPSSLSASVGDRVTITCRASQDVYGYVAWYQQKPGKAPKLLISYTPGLYSGVPSRFSGSGSGTDFTLTISSLQPEDFATYYCQQYYDFPITFGQGTKVEIKR | 
13 | binds | anti-Siglec-3 antibody H3-9E reformatted into human IgG1 or IgG4 (antibody, V domains shown, also called 1H3-9E; 4H3-9E) VH: VQLVESGGGLVQPGGSLRLSCAASGFTIDDGFIHWVRQAPGKGLEWVAGIGPYGGYTYYADSVKGRFTISADTSKNTAYLQMNSLRAEDTAVYYCARFGHPPYDYMDYWGQGTLVTVSS VL: DIQMTQSPSSLSASVGDRVTITCRASQDVYGYVAWYQQKPGKAPKLLISYTPGLYSGVPSRFSGSGSGTDFTLTISSLQPEDFATYYCQQYYDFPITFGQGTKVEIKR | 
14 | binds | anti-Siglec-3 antibody H3-7G reformatted into human IgG1 or IgG4 (antibody, V domains shown, also called 1H3-7G; 4H3-7G) VH: VQLVESGGGLVQPGGSLRLSCAASGFTIDDGFIHWVRQAPGKGLEWVAGIGPYGGYTYYADSVKGRFTISADTSKNTAYLQMNSLRAEDTAVYYCARFRDDKPQMMDYWGQGTLVTVSS VL: DIQMTQSPSSLSASVGDRVTITCRASQDVYGYVAWYQQKPGKAPKLLISYTPGLYSGVPSRFSGSGSGTDFTLTISSLQPEDFATYYCQQYYDFPITFGQGTKVEIKR | 
15 | binds | anti-Siglec-3 antibody S3H1-74 reformatted into human IgG1 or IgG4 (antibody, V domains shown, also called 1S3H1-74; 4S3H1-74) VH: VQLVESGGGLVQPGGSLRLSCAASGFTIHGSWIHWVRQAPGKGLEWVAGIGPYGGYTYYADSVKGRFTISADTSKNTAYLQMNSLRAEDTAVYYCARFNDHWDLWMDYWGQGTLVTVSS VL: DIQMTQSPSSLSASVGDRVTITCRASQDVYGYVAWYQQKPGKAPKLLISYTPGLYSGVPSRFSGSGSGTDFTLTISSLQPEDFATYYCQQYYDFPITFGQGTKVEIKR | 
16 | binds | anti-Siglec-3 antibody S3H2-10 reformatted into human IgG1 or IgG4 (antibody, V domains shown, also called 1S3H2-10; 4S3H2-10) VH: VQLVESGGGLVQPGGSLRLSCAASGFTIDDGFIHWVRQAPGKGLEWVAAIPPLQGKTYYADSVKGRFTISADTSKNTAYLQMNSLRAEDTAVYYCARFNDHWDLWMDYWGQGTLVTVSS VL: DIQMTQSPSSLSASVGDRVTITCRASQDVYGYVAWYQQKPGKAPKLLISYTPGLYSGVPSRFSGSGSGTDFTLTISSLQPEDFATYYCQQYYDFPITFGQGTKVEIKR | 
